{"source": "patent US20160289342A1", "key": {"[1]": {"biological_target": "recombinant human soluble BAFF (human) (UniProt Q9Y275)", "sequence (Q9Y275 134-285 limits assumed)": "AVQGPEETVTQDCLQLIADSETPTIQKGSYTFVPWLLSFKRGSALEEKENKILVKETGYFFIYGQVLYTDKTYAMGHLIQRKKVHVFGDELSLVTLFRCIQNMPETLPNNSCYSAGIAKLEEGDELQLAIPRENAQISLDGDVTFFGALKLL", "assay": "flow cytometry on JY cells, simultaneous binding assay, 5000 ng biotinylated BAFF, BAFF channel FL-2 (PE)"}, "[2]": {"biological_target": "human CD20 (human) (UniProt P11836)", "sequence (P11836 whole entry)": "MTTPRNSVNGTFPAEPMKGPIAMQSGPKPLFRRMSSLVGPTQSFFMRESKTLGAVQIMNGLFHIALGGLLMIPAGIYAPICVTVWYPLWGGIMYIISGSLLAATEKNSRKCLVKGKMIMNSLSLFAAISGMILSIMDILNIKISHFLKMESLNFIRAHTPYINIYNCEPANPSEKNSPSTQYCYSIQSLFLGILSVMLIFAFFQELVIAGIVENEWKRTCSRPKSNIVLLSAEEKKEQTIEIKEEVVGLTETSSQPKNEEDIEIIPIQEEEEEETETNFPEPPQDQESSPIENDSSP", "assay": "flow cytometry on JY cells, simultaneous binding assay, 0.32 ng biotinylated BAFF, CD20 channel FL-1"}, "[3]": {"biological_target": "recombinant human soluble BAFF (human) (UniProt Q9Y275)", "assay": "flow cytometry on JY cells, simultaneous binding assay, 1000 ng biotinylated BAFF, BAFF channel FL-2 (PE)"}, "[4]": {"biological_target": "recombinant human soluble BAFF (human) (UniProt Q9Y275)", "assay": "flow cytometry on JY cells, simultaneous binding assay, 0.32 ng biotinylated BAFF, BAFF channel FL-2 (PE)"}, "[5]": {"biological_target": "recombinant human soluble BAFF (human) (UniProt Q9Y275)", "assay": "flow cytometry on JY cells, simultaneous binding assay, 200 ng biotinylated BAFF, BAFF channel FL-2 (PE)"}, "[6]": {"biological_target": "human CD20 (human) (UniProt P11836)", "assay": "flow cytometry on JY cells, simultaneous binding assay, 5000 ng biotinylated BAFF, CD20 channel FL-1"}, "[7]": {"biological_target": "human CD20 (human) (UniProt P11836)", "assay": "flow cytometry on JY cells, simultaneous binding assay, 200 ng biotinylated BAFF, CD20 channel FL-1"}, "[8]": {"biological_target": "human CD20 (human) (UniProt P11836)", "assay": "flow cytometry on JY cells, simultaneous binding assay, 1000 ng biotinylated BAFF, CD20 channel FL-1"}}, "data": [{"substance": "control human IgG1 antibody", "values": [{"measurement": "MFI", "setting": "[1]", "result": 1.26, "unit": "MFI"}, {"measurement": "MFI", "setting": "[2]", "result": 9.8, "unit": "MFI"}, {"measurement": "MFI", "setting": "[3]", "result": 1.3, "unit": "MFI"}, {"measurement": "MFI", "setting": "[4]", "result": 1.31, "unit": "MFI"}, {"measurement": "MFI", "setting": "[5]", "result": 1.43, "unit": "MFI"}, {"measurement": "MFI", "setting": "[6]", "result": 8.5, "unit": "MFI"}, {"measurement": "MFI", "setting": "[7]", "result": 18, "unit": "MFI"}, {"measurement": "MFI", "setting": "[8]", "result": 9.14, "unit": "MFI"}]}]}
